{"source": "patent US5712366", "about": "“Fabrication of nanoscale materials using self-assembling proteins” (The United States of America as represented by the …, dated 1998)", "binders": {"B1": {"name": "polypeptide A2 (amino acid sequence of FIG. 4A) (designed binder)", "chain": "IGDLENEVAQLEREVRSLEDEAAELEQKVSRLKNEIEDLKAEIGDLENEVAQLEREVRSLEDEAAELEQKVSRLKNEIEDLKAE"}}, "key": {"[1]": {"target": "T1, polypeptide B2 (amino acid sequence of FIG. 4B)", "T1 chain": "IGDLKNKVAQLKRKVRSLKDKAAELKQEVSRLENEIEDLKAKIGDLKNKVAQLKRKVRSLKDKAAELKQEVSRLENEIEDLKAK", "assay": "turbidity at 400 nm on mixing at equal concentrations; gel analysis of the precipitate", "from_the_text": "First, the interaction between polypeptides A2 and B2 was investigated using turbidity measurements at 400 nm. […] When the polypeptides were mixed at equal concentrations, a rapid increase in turbidity was seen. This was attributed to specific heterodimer formation, which subsequently associated into higher order structures that precipitated in solution. […] No similar increase in the turbidity of the homodimer solutions was observed prior to mixing."}, "[2]": {"target": "T2, polypeptide C2 (amino acid sequence of FIG. 4C)", "T2 chain": "T1 chain with K12E, K14E, K54E, K56E", "assay": "surface plasmon resonance, one species immobilized onto a gold film", "method": "Next, the interaction of polypeptide A2 with polypeptides B2 and C2, when both of the components were free in solution and when one species was immobilized onto a gold film, was examined. The immobilization tests were performed to measure the rates of association and dissociation between the complexes. Surface plasmon resonance was used to detect minute changes in refractive index that accompanied a specific binding event in the immediate vicinity of the metal surface. […] After an initial increase in refractive index due to solvent exchange, it is seen that the rate of association for the A2-B2 complex was more rapid and that the equilibrium response was achieved sooner. […] For the A2-C2 interaction, kass=3.46×10^3, kdiss=[…], and K_a=1.45×10^6."}}, "note": "Changes are numbered by the printed parent chain."}
{"binder": "B1", "values": [{"measurement": "binding result", "setting": "[1]", "value": "binds"}, {"measurement": "binding result", "setting": "[2]", "value": "binds"}]}
